Data as given in JP2013532970A, “追加のジスルフィド結合を含有するヒトインスリン” (ノヴォ ノルディスク アー/エス, priority 2010, dated 2011).

Experiment: Thioflavin T (ThT) fibrillation assay
Type: physicochemical
Conditions: 7 mM sodium phosphate pH 7.4, 1 μM ThT, 37℃, orbital shaking 960 rpm

## A10C, B4C, desB30ヒトインスリン [実施例4]
45 h
  Fibrillation within the 45-hour experiment (ThT fluorescence): 細線維化しなかった

## ヒトインスリン: Human insulin hormone (prior art), 21-residue A chain and 30-residue B chain; used as the reference
  ThT fibrillation lag time: < 2 時間
